Measured values from article PMC7112112.

Assays:
[1] = RT-qPCR of IBV gRNA and sgRNA2; conditions: glycan lost; control: WTrIBV
[2] = growth curve, TCID50, Vero cells; conditions: glycan lost; control: WTrIBV
[3] = plaque size and shape, Vero cells; conditions: glycan lost; control: WTrIBV
[4] = indirect immunofluorescence, infected Vero cells; conditions: glycan lost; control: WTrIBV
[5] = 20-60% sucrose gradient ultracentrifugation, anti-M blot; conditions: glycan lost; control: WTrIBV
[6] = co-expression with E in COS-7, pelleted VLP blot; conditions: glycan lost; control: MWT

B1: IBV M protein (membrane protein): rN3D/N6D (protein)
parent chain: MPNETNCTLDFEQSVQLFKEYNLFITAFLLFLTIILQYGYATRSKVIYTLKMIVLWCFWPLNIAVGVISCTYPPNTGGLVAAIILTVFACLSFVGYWIQSIRLFKRCRSWWSFNPESNAVGSILLTNGQQCNFAIESVPMVLSPIIKNGVLYCEGQWLAKCEPDHLPKDIFVCTPDRRNIYRMVQKYTGDQSGNKKRFATFVYAKQSVDTGELESVATGGSSLYT
no change: other: viral replication [1] | other: viral replication [2] | other: viral replication [3] | localisation_or_trafficking [4] | other: virion sedimentation [5]

B2: IBV M protein (membrane protein): MN3D/N6D (protein)
parent chain: B1 parent chain
no change: other: VLP formation [6]
